Assay results from the Human Domainome abundance scans (Beltran et al. 2025).
± gives the uncertainty stated by the source.

B1: Transcription factor SOX-11, residues 50 to 117; numbered along this chain, P35716 (parent)
chain: KRPMNAFMVWSKIERRKIMEQSPDMHNAEISKRLGKRWKMLKDSEKIPFIREAERLRLKHMADYPDYK

Variants of: B1
Assay: abundance fitness (aPCA) (normalised: wild type 0, dead -1); higher = more abundant; growth selection in yeast, the domain comes from the species named
Details: Homo sapiens

Variant	abundance fitness
R51I	-0.104 ± 0.051
R51K	-0.054 ± 0.12
R51D	-0.129 ± 0.058
R51M	0.141 ± 0.14
R51F	-0.411 ± 0.055
R51G	-0.606 ± 0.068
R51P	-0.473 ± 0.11
R51H	-0.289 ± 0.073
R51Q	0.189 ± 0.15
R51L	-0.125 ± 0.054
R51S	-0.495 ± 0.053
R51C	-0.304 ± 0.058
R51A	-0.069 ± 0.054
G35I	0.173 ± 0.053
G35L	0.162 ± 0.055
G35P	-0.234 ± 0.1
G35W	-0.207 ± 0.11
G35Y	0.126 ± 0.058
G35V	0.25 ± 0.048
G35S	0.315 ± 0.043
G35H	0.266 ± 0.061
G35M	0.17 ± 0.1
G35Q	0.212 ± 0.15
G35C	0.129 ± 0.051

Variant	abundance fitness
G35R	0.142 ± 0.057
G35E	0.519 ± 0.1
G35K	0.484 ± 0.12
G35A	0.152 ± 0.06
G35D	0.25 ± 0.055
G35T	0.262 ± 0.059
K32W	-0.137 ± 0.14
K32F	-0.329 ± 0.063
K32V	-0.101 ± 0.057
K32L	-0.175 ± 0.058
K32Q	-0.061 ± 0.12
K32M	-0.17 ± 0.13
K32E	0.245 ± 0.16
K32G	-0.245 ± 0.063
K32H	-0.036 ± 0.061
K32P	-0.672 ± 0.16
K32I	-0.145 ± 0.056
K32A	0 ± 0.068
K32T	-0.308 ± 0.073
K32D	0.047 ± 0.059
K32N	-0.185 ± 0.061
K32S	-0.253 ± 0.056
L34D	-0.685 ± 0.1
L34M	-0.547 ± 0.16

Variant	abundance fitness
L34P	-0.222 ± 0.11
L34Y	-0.826 ± 0.089
L34E	-0.891 ± 0.34
L34R	-0.763 ± 0.1
L34N	-0.82 ± 0.092
L34C	-0.522 ± 0.072
L34F	-0.68 ± 0.066
L34S	-0.719 ± 0.074
L34K	-1.29 ± 0.39
L34V	-0.531 ± 0.072
L34Q	-0.638 ± 0.23
L34H	-0.846 ± 0.11
L34A	-0.938 ± 0.13
L34W	-0.909 ± 0.14
F49I	-0.694 ± 0.074
F49S	-0.566 ± 0.065
F49W	-0.256 ± 0.11
F49T	-0.558 ± 0.097
F49R	-0.767 ± 0.091
F49A	-0.761 ± 0.093
F49N	-0.881 ± 0.1
F49H	-0.739 ± 0.11
F49G	-0.739 ± 0.076
F49E	-0.792 ± 0.46

Variant	abundance fitness
F49V	-0.635 ± 0.067
F49Y	0.048 ± 0.053
F49L	-0.731 ± 0.09
F49M	-0.301 ± 0.2
R37L	-0.085 ± 0.053
R37C	-0.346 ± 0.057
R37T	0.205 ± 0.06
R37F	-0.764 ± 0.072
R37Q	0.073 ± 0.14
R37D	-0.27 ± 0.056
R37Y	-0.59 ± 0.068
R37K	-0.039 ± 0.094
R37E	0.188 ± 0.1
R37I	-0.123 ± 0.051
R37H	-0.129 ± 0.07
R37V	-0.271 ± 0.052
R37N	0.001 ± 0.051
R37W	-0.418 ± 0.2
R37P	-1.13 ± 0.23
R37A	0.117 ± 0.054
R37G	0.01 ± 0.056
R37M	-0.058 ± 0.11
L41A	-0.671 ± 0.099
L41Y	-0.753 ± 0.08

Variant	abundance fitness
L41D	-0.849 ± 0.12
L41N	-0.849 ± 0.11
L41G	-0.702 ± 0.078
L41F	-0.791 ± 0.076
L41S	-0.604 ± 0.061
L41P	-1.14 ± 0.21
L41E	-1.04 ± 0.35
L41V	-0.53 ± 0.068
L41K	-0.666 ± 0.23
L41I	-0.652 ± 0.078
L41W	-0.867 ± 0.36
L41Q	-0.721 ± 0.31
L41C	-0.876 ± 0.098
L41R	-0.762 ± 0.097
L41H	-0.951 ± 0.13
K42L	-0.315 ± 0.056
K42V	-0.431 ± 0.055
K42C	-0.424 ± 0.061
K42A	-0.058 ± 0.071
K42P	0.021 ± 0.068
K42H	-0.235 ± 0.067
K42G	-0.221 ± 0.063
K42D	-0.263 ± 0.063
K42I	-0.526 ± 0.072

Variant	abundance fitness
K42F	-0.673 ± 0.065
K42M	-0.161 ± 0.11
K42N	0.051 ± 0.05
K42Y	-0.525 ± 0.077
K42E	-0.387 ± 0.17
K42W	-0.706 ± 0.16
K42R	-0.278 ± 0.064
K46H	-0.718 ± 0.08
K46V	-0.647 ± 0.084
K46D	-0.777 ± 0.098
K46Y	-0.968 ± 0.081
K46L	-0.982 ± 0.11
K46T	-0.619 ± 0.089
K46S	-0.996 ± 0.08
K46W	-0.995 ± 0.27
K46P	-0.844 ± 0.14
K46F	-0.987 ± 0.087
K46G	-0.671 ± 0.1
K46I	-0.595 ± 0.065
K46M	-0.85 ± 0.3
K46A	-0.871 ± 0.12
K46C	-0.848 ± 0.088
K46E	-0.74 ± 0.37
E45N	-0.439 ± 0.088

Variant	abundance fitness
E45V	-0.425 ± 0.071
E45W	-0.447 ± 0.14
E45C	-0.548 ± 0.085
E45S	-0.828 ± 0.091
E45T	-0.942 ± 0.21
E45Y	-0.395 ± 0.062
E45F	-0.297 ± 0.052
E45Q	-0.282 ± 0.13
E45K	-0.667 ± 0.24
E45H	-0.45 ± 0.077
E45L	-0.221 ± 0.054
E45R	-0.891 ± 0.13
E45M	-0.314 ± 0.12
E45P	-0.918 ± 0.2
E45G	-1.04 ± 0.16
E45I	-0.336 ± 0.064
W38T	-1.05 ± 0.16
W38K	-0.375 ± 0.22
W38Q	-0.068 ± 0.36
W38D	-0.696 ± 0.09
W38P	-1 ± 0.17
W38C	-0.644 ± 0.081
W38F	-0.801 ± 0.076
W38H	-0.851 ± 0.12

Variant	abundance fitness
W38Y	-0.641 ± 0.074
W38G	-0.865 ± 0.11
W38E	-1.27 ± 0.46
W38M	-0.717 ± 0.23
W38L	-0.994 ± 0.12
W38I	-0.716 ± 0.079
W38S	-0.59 ± 0.063
W38R	-0.653 ± 0.12
W38V	-0.766 ± 0.081
W38A	-0.568 ± 0.09
W38N	-0.914 ± 0.11
M40E	0.354 ± 0.19
M40V	-0.665 ± 0.069
M40P	-0.711 ± 0.18
M40Y	-0.383 ± 0.058
M40F	-0.404 ± 0.065
M40N	-0.022 ± 0.059
M40D	0.111 ± 0.061
M40C	-0.191 ± 0.053
M40Q	0.361 ± 0.14
M40K	0.29 ± 0.16
M40L	0.011 ± 0.05
M40T	-0.05 ± 0.075
M40W	-0.503 ± 0.24

Variant	abundance fitness
M40R	-0.372 ± 0.072
M40I	-0.605 ± 0.067
M40S	0.023 ± 0.048
M40H	-0.119 ± 0.062
K36G	-0.219 ± 0.064
K36T	0.155 ± 0.066
K36N	0.094 ± 0.057
K36V	0.052 ± 0.054
K36Y	0.041 ± 0.056
K36C	-0.166 ± 0.062
K36M	-0.047 ± 0.097
K36F	-0.149 ± 0.058
K36W	-0.535 ± 0.18
K36H	-0.036 ± 0.068
K36R	-0.011 ± 0.067
K36A	0.084 ± 0.066
K36L	0.034 ± 0.057
K36P	-0.868 ± 0.22
K36D	0.247 ± 0.059
K36I	0.199 ± 0.058
R33Q	0.465 ± 0.13
R33H	-0.008 ± 0.066
R33F	-0.001 ± 0.052
R33K	-0.075 ± 0.18

Variant	abundance fitness
R33G	-0.54 ± 0.08
R33P	-0.75 ± 0.15
R33C	0.178 ± 0.047
R33E	0.343 ± 0.13
R33A	0.22 ± 0.063
R33D	0.169 ± 0.068
R33T	0.367 ± 0.069
R33Y	0.167 ± 0.051
R33W	0.125 ± 0.095
R33L	0.438 ± 0.056
R33N	-0.008 ± 0.057
R33S	0 ± 0.047
I50F	-0.034 ± 0.052
I50D	-0.425 ± 0.071
I50S	-0.509 ± 0.057
I50C	-0.59 ± 0.072
I50Q	-0.007 ± 0.18
I50K	-0.228 ± 0.17
I50M	0.013 ± 0.14
I50W	-0.437 ± 0.14
I50E	0.248 ± 0.11
I50P	-0.617 ± 0.14
I50N	-0.323 ± 0.069
I50L	-0.161 ± 0.063

Variant	abundance fitness
I50R	-0.01 ± 0.059
I50A	-0.287 ± 0.074
I50G	-0.555 ± 0.071
I50H	-0.005 ± 0.06
S44T	-0.215 ± 0.082
S44N	-0.29 ± 0.075
S44I	0.005 ± 0.065
S44Q	0.585 ± 0.18
S44K	-0.492 ± 0.35
S44C	-0.089 ± 0.078
S44E	0.274 ± 0.17
S44M	-0.362 ± 0.2
S44D	0.169 ± 0.066
S44Y	-0.024 ± 0.072
S44P	-0.752 ± 0.18
S44F	-0.132 ± 0.066
S44G	-0.208 ± 0.078
S44W	-0.037 ± 0.13
S44H	-0.053 ± 0.084
S44R	-0.24 ± 0.078
S31M	-0.333 ± 0.14
S31N	0.195 ± 0.054
S31Y	-0.262 ± 0.067
S31T	0.029 ± 0.068

Variant	abundance fitness
S31P	-0.855 ± 0.18
S31H	-0.244 ± 0.084
S31W	-0.3 ± 0.12
S31Q	-0.213 ± 0.13
S31K	-0.096 ± 0.14
S31V	-0.064 ± 0.051
S31R	-0.311 ± 0.082
S31L	-0.2 ± 0.063
I47A	0.061 ± 0.051
I47C	-0.567 ± 0.048
I47L	0.162 ± 0.042
I47H	-0.46 ± 0.053
I47P	-1.04 ± 0.13
I47F	-0.23 ± 0.045
I47V	-0.097 ± 0.041
I47T	-0.051 ± 0.057
I47W	-0.176 ± 0.083
I47S	-0.279 ± 0.04
I47E	0.259 ± 0.067
I47D	-0.107 ± 0.045
I47M	0.101 ± 0.072
I47G	-0.259 ± 0.042
I47K	-0.198 ± 0.077
I47N	-0.529 ± 0.05

Variant	abundance fitness
D43K	-0.205 ± 0.14
D43M	-0.079 ± 0.11
D43G	-0.402 ± 0.061
D43C	-0.448 ± 0.066
D43E	-0.127 ± 0.11
D43Y	-0.191 ± 0.047
D43V	-0.397 ± 0.061
D43P	0.009 ± 0.081
D43H	-0.129 ± 0.059
D43F	-0.047 ± 0.049
D43L	-0.077 ± 0.052
D43I	-0.272 ± 0.054
D43S	-0.339 ± 0.055
P48E	-0.386 ± 0.22
P48S	-0.617 ± 0.086
P48Q	-0.24 ± 0.16
P48N	-0.598 ± 0.093
P48G	-0.384 ± 0.098
P48A	-0.664 ± 0.14
P48F	-0.285 ± 0.075
P48R	-0.604 ± 0.12
P48L	-0.572 ± 0.098
P48I	-0.43 ± 0.089
P48T	-0.719 ± 0.11

Variant	abundance fitness
P48W	-0.577 ± 0.24
P48H	-0.355 ± 0.075
P48V	-0.261 ± 0.077
P48D	-0.656 ± 0.12
P48K	-0.69 ± 0.2
P48C	-0.634 ± 0.087
K39H	-0.473 ± 0.087
K39P	-0.868 ± 0.19
K39D	0.008 ± 0.061
K39E	-0.075 ± 0.17
K39N	-0.045 ± 0.053
K39S	-0.148 ± 0.049
K39M	-0.211 ± 0.12
K39G	-0.084 ± 0.055
K39R	-0.119 ± 0.068
K39F	-0.455 ± 0.065
K39Y	-0.683 ± 0.071
K39L	-0.274 ± 0.078
K39C	-0.452 ± 0.071
K39V	-0.395 ± 0.062
K39Q	0.05 ± 0.14
K39W	-1.03 ± 0.36
